# Changes are numbered by the printed parent chain. Where “and” joins values, the source holds several entries; their conditions need not be identical. Equal entries are not always repeated.
# B1: anti-CCR8 mAb 1-7 (antibody, V domains shown)
# VH: QVHLVETGGGLVRPGNSLKLSCVTSGFTLSNYRMHWLRQPPGKRLEWIAVIKVKSDNYGANYAESVKGRFTISRDDAKSSVYLQMNRLREEDTATYYCSRPDGFSPFVYWGQGTLVTVSA
# VL: DIKMTQSPSSMYASLGERVTITCKASQDINSYLSWFQQKPGKSPKTLIYRANRLVDGVPSRFSGSGSGQDYFLTISSLEYEDMGIYYCLQYGEFPPTFGAGTKLELK
# notes: Murine hybridoma mAb
# B2: anti-CCR8 mAb 1-14 (antibody, V domains shown)
# VH: QVQLVETGGGLVRPGNSLKLSCVTSGFTFSNYRMHWLRQPPGKRLEWIAVIKVKSDNYGANYAESVKGRFTISRDDSKSSVYLQVNRLREEDTATYYCSSPTYPGSSGFAYWGQGTLVTVSA
# VL: DIQMTQTTSSLSASLGDRVTISCRASQDISNYLNWYQQKPDGTVKLLIYYTSRLHSGVPSRFSGSGSGTDYSLTISNLEQEDIATYFCQQGNKFPPTFGGGTKLEIN
# notes: Murine hybridoma mAb
# B3: anti-CCR8 mAb 1-12 (antibody, V domains shown)
# VH: EVQLVETGGGLVQPKGSLKLSCAASGFTFNANAMNWVRQAPGKGLEWVARIRSKSNNYATYYADSVKDRFTISRDDSQSMLYLQMNNLKTEDTAMYYCVRGSDNYIFYAMDYWGQGTSVTVSS
# VL: DIVMTQAAPSVPVTPGESVSISCRSSKSLLHSNGNTYLYWFLQRPGQSPQLLIYRMSNLASGVPDRFSGSGSGTAFTLRISRVEAEDVGVYYCMQHLEYPFTFGGGTKLEIK
# notes: Murine hybridoma mAb
# B4: anti-CCR8 mAb 1-13 (antibody, V domains shown)
# VH: B3 VH with A31T, N57Y, S102R, D103E, N104M, Y105G, I106N, F107Y, A109S
# VL: B3 VL with G105S
# notes: Murine hybridoma mAb
# B5: Ref #2 (antibody, human IgG1, V domains shown)
# VH: QVQLVQSGAEVKKPGASVKVSCKASGYTFTSYYMHWVRQAPGQGLEWMGIINPSGGSTSYAQKFQGRVTMTRDTSTSTVYMELSSLRSEDTAVYYCARAVRNRFRFDYWGQGTLVTVSS
# VL: QSALTQPASVSGSPGQSITISCTGTSSDVGSYNLVSWYQQHPGKAPKLMIYEVSKRPSGVSNRFSGSKSGNTASLTISGLQAEDEADYYCSSYAGSSTFVVFGGGTKLTVL
# B6: Ref #3 (antibody, human IgG1, V domains shown)
# VH: EVQLVESGGGLVQPGGSLKLSCAASGFTFNTYAMNWVRQASGKGLEWVARIRSKANNYATYYADSVKDRFTISRDDSKNTLYLQMNNLKTEDTAVYYCVRDRSRGEDYAMDYWGQGTLVTVSS
# VL: B3 VL with A7S, A8P, P9L, V11L, S18P, V19A, G34A, R44K, R79K, G105Q
# Biological target: T1, human CCR8 (human, UniProt P51685 1-355)
# Experiment: cell-based or functional assay
"residual hCCL1 (100 nM) Gi2 response, protocol #2, mAb 0.08 µg/mL","residual hCCL1 (100 nM) Gi2 response, protocol #2, mAb 0.4 µg/mL","residual hCCL1 (100 nM) Gi2 response, protocol #2, mAb 10 µg/mL","residual hCCL1 (100 nM) Gi2 response, protocol #3, mAb 0.05 µg/mL","residual hCCL1 (100 nM) Gi2 response, protocol #3, mAb 0.5 µg/mL","residual hCCL1 (100 nM) Gi2 response, protocol #3, mAb 5 µg/mL",Binder
73%,51%,24%,69%,38%,30%,B1
93%,89%,48%,92%,68%,50%,B2
99%,85%,68%,86%,75%,48%,B3
60%,35%,21%,69%,39%,38%,B4

# Biological target: T1, human CCR8
# Experiment: flow cytometry, hCCR8-transfected CHO-K1 cells
# Protocol: Briefly, 1.10⁵ cells per well in a 96 well plate were incubated with a dilution of unconjugated anti-CCR8 mAb at 10 μg/mL then diluted at 1/3.33, 4 dilution points (during 30 min at 4° C.). In human activated T cells model, prior to mAb incubation, cells were first incubated with 200 nM of hCCL1 (R&D Systems, Minneapolis, MN, USA) or buffer PBS (Invitrogen by Thermofisher Scientific, Illkirch-Graffenstaden, France) supplemented by 2% Fetal Bovine Serum (Invitrogen by Thermofisher Scientific, Illkirch-Graffenstaden, France) and 2 mM EDTA (Invitrogen by Thermofisher Scientific, Illkirch-Graffenstaden, France) during 1 hour at 4° C. To determine EC50 value, 8 concentrations of anti-CCR8 mAb were tested. Unbound antibodies were washed away with PBS (Invitrogen by Thermofisher Scientific, Illkirch-Graffenstaden, France) supplemented by 2% Fetal Bovine Serum (Invitrogen by Thermofisher Scientific, Illkirch-Graffenstaden, France) and 2 mM EDTA (Invitrogen by Thermofisher Scientific, Illkirch-Graffenstaden, France). Subsequently, cells are centrifuged (5 min at 400 g) and bound antibody is detected with F(ab′)2-Goat anti-Mouse IgG (H+L) Cross-Adsorbed Secondary Antibody, Alexa Fluor 488 (dilution 1/500) (Invitrogen by Thermofisher Scientific, Illkirch-Graffenstaden, France) or with F(ab′)₂-Goat anti-Human IgG Fc Secondary Antibody, PE (Invitrogen by Thermofisher Scientific, Illkirch-Graffenstaden, France) (dilution 1/1000) at 4° C. for 30 min. Detection reagent is washed away and cells are centrifuged (5 min at 400 g) and resuspended in 30 μL PBS. Bound detection antibody is quantified on a MacsQuant16 (Miltenyi, Gladbach, Germany) (B1 or B2 channel, 5000 events per acquisition). During the experiment, the respective isotype mAb controls (mouse IgG1, mouse IgG2a, mouse IgG2b, mouse IgG3 or human IgG1) (Biolegend, Amsterdam, The Netherlands) are included to exclude any unspecific binding events. EC50 values were determined via nonlinear fit “log (agonist) vs.response—Variable slope (four parameters)” function of Graphpad prism. EC50 values were not constantly determined in the same experiments.
% positive cells,MFI fold change to isotype ctrl,Binder
71.3%,6.26 fold,B1
83%,17.6 fold,B2
67.8%,6.11 fold,B3
64.7%,5.63 fold,B4

# Biological target: T1, human CCR8
# Experiment: cell-based or functional assay
# Remark: another data set of the same source
row,"extrapolated top plateau of hCCL1 curve with 5 µg/mL mAb, protocol #3",Binder
1,526000 % of hCCL1 (100 nM),B1
2,305000 % of hCCL1 (100 nM),B2
3,805000 % of hCCL1 (100 nM),B3
4,149 % of hCCL1 (100 nM),B4

# Biological target: T1, human CCR8
# Experiment: cell-based or functional assay
# Remark: another data set of the same source
row,"IC50 of CCL1-induced hCCR8 Gi2 signaling (BRET, HEK-293)",Binder
1,0.018 µg/mL and 0.117 nM,B1
2,0.01 µg/mL and 0.066 nM,B2
3,0.015 µg/mL and 0.099 nM,B3
4,0.01 µg/mL and 0.067 nM,B4

# Biological target: T1, human CCR8
# Experiment: flow cytometry, inhibition of hCCL1-AF647 (10 nM) binding to hCCR8-CHO cells
# Protocol: The hCCR8 transfected CHO cell line was dispatched at a density of 1.105 per well in a 96-well plate. Cells were incubated for 30 min at 4° C. with or without anti-CCR8 mAb tested at 10 μg/mL then diluted at 1/3. Unbound antibodies were washed away with PBS (Gibco, Villebon-sur-yvette, France) supplemented by 2% Fetal Bovine Serum (Invitrogen by Thermofisher Scientific, Illkirch-Graffenstaden, France) and 2 mM EDTA. […] After washing unbound ligands, CCL1 bound detection is quantified on a MacsQuant16 (Miltenyi, Gladbach, Germany) (R1 channel, 5 000 events per acquisition).
# For IC₅₀ determination, a concentration response curve is performed using 8 concentrations of mAb. Curves are fitted and IC₅₀ of CCL1 binding blocking activity is calculated using the sigmoidal dose-response (variable slope) model on GraphPad Prism 9 (GraphPad Software, San Diego, CA, USA).
row,IC50,Binder
1,0.89 µg/mL and 5.7 nM,B1
2,0.28 µg/mL and 1.85 nM,B2
3,0.85 µg/mL and 5.72 nM,B3
4,0.36 µg/mL and 2.42 nM,B4

# Biological target: human CCR8 with a SNAP-tag at the N-terminus (human, UniProt P51685 1-355, SNAP-tag labelled covalently with Lumi4-Terbium)
# Experiment: cell-based or functional assay
"% hCCR8 internalization with CCL1 300 nM, mAb 1 µg/ml (HTRF)","% hCCR8 internalization with CCL1 300 nM, mAb 10 µg/ml (HTRF)",Binder
100%,90%,B5
95%,103%,B6

# Biological target: T1, human CCR8
# Experiment: cell-based or functional assay
# Remark: another data set of the same source
"IC50 of CCL1-induced hCCR8 Gi2 signaling (BRET), pH 6.5","IC50 of CCL1-induced hCCR8 Gi2 signaling (BRET), pH 7.4",Binder
0.011 µg/ml and 0.073 nM,0.007 µg/ml and 0.047 nM,B1
0.014 µg/ml and 0.095 nM,0.004 µg/ml and 0.026 nM,B2
0.031 µg/ml and 0.208 nM,0.017 µg/ml and 0.115 nM,B3
0.019 µg/ml and 0.125 nM,0.011 µg/ml and 0.075 nM,B4

# Biological target: T2, pm6 (Y16 and Y17 sulfated; Y15 not sulfated)
# T2 construct: also called sulfated CCR8 N-terminal peptide pm6
# Experiment: ELISA on coated peptide [cont.]
# Protocol: (§1) The specific binding properties of antibodies were evaluated by ELISA with coated CCR8 related peptides (500 ng/ml) in carbonate/bicarbonate buffer. Different peptides were used as described in Table 1 (see Example 1). Each anti-CCR8 mAb was tested at 1 μg/mL then diluted at 1/10. After an incubation at room temperature during 90 min, unbound mAbs were removed by washings. […] After washings, 3,3′,5,5′-tetramethylbenzidine (TMB) (Interchim, Montluçon, France) was added for 15 min. Then the optical density (OD) was determined by using a multiplate reader (Tecan, Lyon, France) and correlated with mAb reactivity on the panel of coated peptides.
# T2 sequence (peptide, as listed by the source): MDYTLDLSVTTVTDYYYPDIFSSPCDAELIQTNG
row,binding result,Binder
1,binds,B1
2,binds,B2
3,binds,B3
4,binds,B4

# Biological target: T3, pm3 (Y17 sulfated; Y15 and Y16 not sulfated)
# T3 construct: also called sulfated CCR8 N-terminal peptide pm3
# Experiment: ELISA on coated peptide [cont.]
# Protocol: as §1
# T3 sequence (peptide, as listed by the source): as above
row,binding result,Binder
1,binds,B1
2,binds,B2
3,binds,B3
4,binds,B4

# Biological target: T4, pm5 (Y15 and Y17 sulfated; Y16 not sulfated)
# T4 construct: also called sulfated CCR8 N-terminal peptide pm5
# Experiment: ELISA on coated peptide [cont.]
# Protocol: as §1
# T4 sequence (peptide, as listed by the source): as above
row,binding result,Binder
1,binds,B1
2,binds,B2
3,binds,B3
4,binds,B4

# Biological target: T5, pm8 (Y15, Y16 and Y17 sulfated)
# T5 construct: also called sulfated CCR8 N-terminal peptide pm8
# Experiment: ELISA on coated peptide [cont.]
# Protocol: as §1
# T5 sequence (peptide, as listed by the source): as above
row,binding result,Binder
1,binds,B1
2,binds,B2
3,binds,B3
4,binds,B4
